Target: SIM1 bHLH-PASA-PASB;ARNT2 bHLH-PASA-PASB (;, UniProt P81133;Q9HBZ2 1-348;1-455, |)
Test: EMSA; preferred over HIF2a probe; EMSA: 10 nM probe, 20 mM Tris pH 8.0, 250 mM NaCl, 16 ug/ml salmon sperm ssDNA, 30 ug/ml BSA, 1.25 mM MgCl2, 6% glycerol, 10 mM DTT, room temperature 30 min, 5-7% native PAGE
Conditions: protein: recombinant;recombinant; tags: 6xHis-TEV, tag removed;untagged; copies: 1;1; label: FAM (upper strand); blunt

Chain of SIM1 bHLH-PASA-PASB;ARNT2 bHLH-PASA-PASB (P81133 1-348, chain 1 of 2): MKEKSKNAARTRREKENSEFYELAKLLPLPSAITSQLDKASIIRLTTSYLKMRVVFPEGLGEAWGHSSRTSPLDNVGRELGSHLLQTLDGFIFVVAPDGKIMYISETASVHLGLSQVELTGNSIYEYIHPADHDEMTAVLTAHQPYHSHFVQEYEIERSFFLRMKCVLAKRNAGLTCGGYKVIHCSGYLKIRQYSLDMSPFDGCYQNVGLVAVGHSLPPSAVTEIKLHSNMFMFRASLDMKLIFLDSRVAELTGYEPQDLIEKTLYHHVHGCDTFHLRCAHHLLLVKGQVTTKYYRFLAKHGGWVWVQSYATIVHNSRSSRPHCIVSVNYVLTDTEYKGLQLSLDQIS
Chain of SIM1 bHLH-PASA-PASB;ARNT2 bHLH-PASA-PASB (Q9HBZ2 1-455, chain 2 of 2): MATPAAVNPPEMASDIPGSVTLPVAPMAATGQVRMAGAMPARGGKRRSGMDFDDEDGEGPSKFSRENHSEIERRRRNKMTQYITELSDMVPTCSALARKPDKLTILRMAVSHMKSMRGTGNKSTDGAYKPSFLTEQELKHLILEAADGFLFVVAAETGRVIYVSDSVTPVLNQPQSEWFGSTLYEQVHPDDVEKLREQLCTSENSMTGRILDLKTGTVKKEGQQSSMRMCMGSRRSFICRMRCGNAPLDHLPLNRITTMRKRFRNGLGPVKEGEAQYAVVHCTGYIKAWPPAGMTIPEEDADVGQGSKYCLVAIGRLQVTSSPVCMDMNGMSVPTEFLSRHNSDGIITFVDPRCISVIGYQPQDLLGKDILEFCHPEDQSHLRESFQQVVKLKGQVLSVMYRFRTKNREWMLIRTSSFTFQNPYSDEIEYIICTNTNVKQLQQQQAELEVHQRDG

B1: SRE 22mer (top SIM1/ARNT2 probe) (dsDNA)
DNA 1: AAAAGGTACGTGACCAAAAAGA
DNA 2: TCTTTTTGGTCACGTACCTTTT
  binding result: binds

From paper PMC12774657, “Multimodal bHLH-PAS DNA binding controls specificity and drives obesity”
